How the values were obtained:
[1] = biological target: PHSVTP-Fbp1 (Fbp1 with its N-terminus exchanged to Mdh2 degron) (S. cerevisiae) (UniProt P09201); assay: cryo-EM structure; purified Cage-GID^SR4 at 1 mg/ml with fivefold molar excess of purified PHSVTP-Fbp1 added directly before grid preparation; 12.2 Å; 25 mM HEPES pH 7.5, 50 mM NaCl, 5 mM DTT
[2] = biological target: Gid12-Chelator-GID^SR4 (Gid12-Gid7-Gid4-Gid5-Gid1-Gid8-Gid2-Gid9), Twin-Strep at the C-terminus of Gid8 (S. cerevisiae) (UniProt Q12027); assay: cryo-EM structure; maps of Gid12-GID^SR4 (9.8 Å), Gid12-Chelator-GID^SR4 (19.4 Å) and Gid12-Cage-GID^SR4 (20.6 Å), complexes co-expressed in Hi5 cells and purified; docked with Gid12-SRS and prior structures
[3] = biological target: Chelator-GID^SR4 (Gid7-Gid4-Gid5-Gid1-Gid8-Gid2-Gid9), Twin-Strep at the C-terminus of Gid8 (S. cerevisiae) (UniProt P53076); assay: cryo-EM structure; Cage-GID^SR4 prepared without Gid12, co-expressed in Hi5 cells and purified; 19.8 Å map fitted with three Chelator-GID^SR4 models
[4] = biological target: T1, 3×HA-Gid4 (endogenously N-terminally HA-tagged Gid4) (S. cerevisiae (endogenous in BY4741), UniProt P38263 1-362); assay: affinity purification with mass spectrometry; 3×HA-Gid4 on anti-HA resin, eluted with HA peptide, from BY4741 GID12-9×cMYC lysate; glycolytic conditions, ethanol starvation for 16 h or carbon recovery; iBAQ quantification; details: partners not purified
T1 construct: Gid4 (Vid24), S. cerevisiae, tagged at the endogenous locus; source: endogenous locus, BY4741 GID12-9×cMYC::kanMX4, 3×HA-GID4 yeast, in lysate; not shown: 3×HA, N-terminal, kept
T1 sequence (looked up): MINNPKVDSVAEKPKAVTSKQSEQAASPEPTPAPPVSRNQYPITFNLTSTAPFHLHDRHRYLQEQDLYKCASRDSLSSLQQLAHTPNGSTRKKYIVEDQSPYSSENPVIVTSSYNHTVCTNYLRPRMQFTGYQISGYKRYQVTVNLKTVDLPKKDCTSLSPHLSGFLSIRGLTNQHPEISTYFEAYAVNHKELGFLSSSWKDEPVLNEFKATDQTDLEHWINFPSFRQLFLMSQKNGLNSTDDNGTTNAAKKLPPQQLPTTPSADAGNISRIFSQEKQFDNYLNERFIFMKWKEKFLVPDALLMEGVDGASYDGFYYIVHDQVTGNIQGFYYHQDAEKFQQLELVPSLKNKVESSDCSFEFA

[5] = biological target: the molecule itself; assay: cryo-EM structure; purified Chelator-GID^SR4 at 0.6 mg/ml with threefold molar excess of purified Mdh2-6×His added directly before grid preparation; 18.9 Å; 25 mM HEPES pH 7.5, 150 mM NaCl, 5 mM DTT

For “PHSVTP-Fbp1 (Fbp1 with its N-terminus exchanged to Mdh2 degron) (from UniProt P09201 1-348) (enzyme)”, the stoichiometry N [1] was 4.

Molecule “Gid12-Chelator-GID^SR4 (Gid12-Gid7-Gid4-Gid5-Gid1-Gid8-Gid2-Gid9), Twin-Strep at the C-terminus of Gid8, Q12027 1-708; P53076 1-958; Q12508 1-421; P38263 1-362; P40547 1-921; P25569 1-745; P40208 1-455; P40492 1-516” has a stoichiometry N [2] of 3.

“Chelator-GID^SR4 (Gid7-Gid4-Gid5-Gid1-Gid8-Gid2-Gid9), Twin-Strep at the C-terminus of Gid8, P53076 1-958; Q12508 1-421; P38263 1-362; P40547 1-921; P25569 1-745; P40208 1-455; P40492 1-516” showed a stoichiometry N [3] of 3.

B1: Gid12-9×cMYC (natural protein, S. cerevisiae (endogenous in BY4741), UniProt Q12027 1-708, looked up)
chain: MATGRIQFAVSTPCNTKGKPSGYRLFEFKNDRLALVPSERGCTKVDVNANIQAFCYLRPNGRDTSISPDATHILDSCDYMVLAKSNGFIEIISNYQYKIKNGLRLAPSYILRCTPEDFESNFFSDYMIAGLEYSQGLLYCCMCSGRIYVFVMNLPTDYIQYKNMYNPMFPDCFFKVHHDNNTTHSSEEEKLFEGSTRYTGRSCSKHICYFLLPIEPSHLRSSPVVSSFCNMYQGLPIYRPSMYLHIERGISTFHINPLDRFCFMTVSPRSPLFIRKIILPLTYVTFLSTFISLKNSIQGDTCGEILSWDNVAQQNGFGSLFSWISNKFTFDTDIINSTIWDDIVKYSGTGMLDSGIVWKQRQGHAKDDIYELFHTQDMLGSSRRNSSFSTASSEPRPLSRRRRESFQALTRDAFRERMDVPCSTKWELDSFIRGLRRNTFMVDFEIVEKISHRNGNDGVNEDDNTTDESDETMTSFLTDNYKKMDIVCIDHFVTLSAFRPRYYDEPIIKIDSLSNKNGSENGTNEEEWAESQMKVDGQVIDDETAQFKQALGNLCSFKKLFMLDDSLCFILDTHGVLLINRFEIKNTKNLLRNSKDTIRIIPHDFGLINDTIVIINDIDVGTDNVCALTFHLVVTSMAGEITVLKGEFFKNCRLGRIKLCDSLKLNRKDRFVDKLALIDYDGLNAQKRRLDYDEKDLYTFIVKKVKRD
notes: Gid12 (Ipf1, YDL176W), S. cerevisiae, tagged at the endogenous locus; The strain name is written GID12-9×cMYC; source: endogenous locus, BY4741 GID12-9×cMYC::kanMX4, 3×HA-GID4 yeast, in lysate
B1 was tested, and the “ratio of Gid12 to Gid4 in the Gid4 immunoprecipitate (iBAQ), glycolytic growth conditions” value [4] was ~0.2 Gid12:Gid4 and the “stoichiometry of Gid12 to Gid4 in the Gid4 immunoprecipitate (iBAQ), gluconeogenic growth conditions” value [4] was ~1 Gid12:Gid4.

B2: Mdh2-6×His (enzyme, S. cerevisiae, UniProt P22133 2-377, looked up)
chain: PHSVTPSIEQDSLKIAILGAAGGIGQSLSLLLKAQLQYQLKESNRSVTHIHLALYDVNQEAINGVTADLSHIDTPISVSSHSPAGGIENCLHNASIVVIPAGVPRKPGMTRDDLFNVNAGIISQLGDSIAECCDLSKVFVLVISNPVNSLVPVMVSNILKNHPQSRNSGIERRIMGVTKLDIVRASTFLREINIESGLTPRVNSMPDVPVIGGHSGETIIPLFSQSNFLSRLNEDQLKYLIHRVQYGGDEVVKAKNGKGSATLSMAHAGYKCVVQFVSLLLGNIEQIHGTYYVPLKDANNFPIAPGADQLLPLVDGADYFAIPLTITTKGVSYVDYDIVNRMNDMERNQMLPICVSQLKKNIDKGLEFVASRSASS
notes: Mdh2 (malate dehydrogenase), S. cerevisiae; The name is written Mdh2-6×His; also called malate dehydrogenase; source: purified
B2 was tested, and the “stoichiometry N” value [5] was 2.
